Columns and labels:
CT-SBP2L (human) = assay: EMSA; details: EMSA: 20 fmol RNA in 20 uL, 1x PBS, glycerol, 250 ug yeast tRNA, 10 mM DTT, 5 ug soybean trypsin inhibitor, 37 C 30 min, 4% native PAGE; pH not stated
CT-SBP2 (human) = assay: EMSA; details: EMSA: 20 fmol RNA in 20 uL, 1x PBS, glycerol, 250 ug yeast tRNA, 10 mM DTT, 5 ug soybean trypsin inhibitor, 37 C 30 min, 4% native PAGE; pH not stated

Row | Substance | Kd (CT-SBP2L (human)) [µM] | Kd (CT-SBP2 (human)) [µM]
1 | DIO1 SECIS | 0.0199 | 0.0027
2 | DIO2 SECIS | 0.0713 | 0.0068
3 | DIO3 SECIS | 0.0557 | 0.0054
4 | GPX1 SECIS | 0.112 | 0.0063
5 | GPX2 SECIS | 0.135 | 0.0109
6 | GPX3 SECIS | 0.135 | 0.025
7 | GPX4 SECIS | 0.0582 | 0.0132
8 | GPX6 SECIS | 0.313 | 0.15
9 | SEP15 SECIS | 0.0529 | 0.005
10 | SPS2 SECIS | 0.129 | 0.0075
11 | SelH SECIS | 0.102 | 0.0047
12 | SelI SECIS | 0.0592 | 0.0122
13 | SelK SECIS | 0.0329 | 0.0036
14 | SelM SECIS | 0.0234 | 0.003
15 | SelN SECIS | 0.089 | 0.0105
16 | SelO SECIS | 0.0587 | 0.007
17 | SelP SECIS 1 | 0.0592 | 0.0034
18 | SelP SECIS 2 | 0.0276 | 0.0016
19 | SelR SECIS | 0.196 | 0.0097
20 | SelS SECIS | 0.093 | 0.0259
21 | SelT SECIS | 0.102 | 0.004
22 | SelV SECIS | 0.0124 | 0.0067
23 | SelW SECIS | 0.0877 | 0.004
24 | TR1 SECIS | 0.0206 | 0.0058
25 | TR2 SECIS | 0.0544 | 0.0116
26 | TR3 SECIS | 0.115 | 0.0042
